Reference: US10562947B2, “Compositions and methods for preventing or treating diseases, conditions or processes characterized by aberrant fibroblast proliferation and extracellular matrix deposition” (MOERAE MATRIX, INC., priority 2011, dated 2020)
Where a SMILES comes first, the peptide text is derived from it.

Legend:
Test in all cases: Kinase Profiling Assay
Assay type in all cases: biochemical
[1] = biological target: TrkB(h) (Homo sapiens, UniProt Q16620); conditions: for TrkB(h) % activity: 100 μM peptide
Outline: (§1)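 Selectivity profiling: MK2-targeting peptides tested on 266 human kinases. All activity determinations done in duplicate.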

[2] = biological target: CHK2(R145W)(h) (Homo sapiens, UniProt O96017, R145W); conditions: 100 μM peptide
CHK2(R145W)(h), sequence (O96017 whole entry R145W): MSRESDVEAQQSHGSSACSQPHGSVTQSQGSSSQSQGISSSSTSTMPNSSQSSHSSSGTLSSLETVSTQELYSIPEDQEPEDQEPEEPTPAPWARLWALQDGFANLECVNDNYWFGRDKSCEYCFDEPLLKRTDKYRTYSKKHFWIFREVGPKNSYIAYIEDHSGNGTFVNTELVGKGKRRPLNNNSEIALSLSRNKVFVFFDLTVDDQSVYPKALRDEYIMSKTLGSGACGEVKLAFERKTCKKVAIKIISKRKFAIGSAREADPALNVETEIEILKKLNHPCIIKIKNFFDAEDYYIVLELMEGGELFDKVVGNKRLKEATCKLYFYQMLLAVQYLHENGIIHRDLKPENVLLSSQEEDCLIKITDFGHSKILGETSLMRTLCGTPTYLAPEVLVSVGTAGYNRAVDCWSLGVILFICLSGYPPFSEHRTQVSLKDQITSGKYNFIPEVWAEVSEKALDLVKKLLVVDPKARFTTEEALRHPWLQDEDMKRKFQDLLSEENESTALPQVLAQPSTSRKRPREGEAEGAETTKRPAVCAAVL
Outline: as §1

[3] = biological target: T1, GRK7(h) (Homo sapiens, UniProt Q8WTQ7); conditions: 100 μM peptide
T1 construct: purchased Millipore
T1 sequence (Q8WTQ7 1-553): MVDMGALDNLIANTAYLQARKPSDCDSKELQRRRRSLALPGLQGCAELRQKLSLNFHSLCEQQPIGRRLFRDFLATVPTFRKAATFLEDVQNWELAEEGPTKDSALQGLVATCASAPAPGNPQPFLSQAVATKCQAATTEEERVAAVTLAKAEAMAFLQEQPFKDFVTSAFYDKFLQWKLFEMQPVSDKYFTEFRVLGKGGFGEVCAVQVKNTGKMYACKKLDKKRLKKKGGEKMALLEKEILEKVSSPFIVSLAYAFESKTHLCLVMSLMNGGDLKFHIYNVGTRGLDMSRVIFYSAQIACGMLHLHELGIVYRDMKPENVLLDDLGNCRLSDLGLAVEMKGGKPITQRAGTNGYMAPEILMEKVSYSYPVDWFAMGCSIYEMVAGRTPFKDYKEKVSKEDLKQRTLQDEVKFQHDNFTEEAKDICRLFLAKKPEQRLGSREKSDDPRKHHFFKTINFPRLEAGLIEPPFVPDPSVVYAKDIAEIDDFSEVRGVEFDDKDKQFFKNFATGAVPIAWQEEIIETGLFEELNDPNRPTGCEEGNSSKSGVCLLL
Outline: as §1

[4] = biological target: T2, Pyk2(h) (Homo sapiens, UniProt Q14289); conditions: 100 μM peptide
T2 construct: purchased Millipore (IC50 Profiler Express service)
Outline: as §1

[5] = biological target: Aurora-B(h) (Homo sapiens, UniProt Q96GD4); conditions: 100 μM peptide
Aurora-B(h), sequence (Q96GD4 whole entry): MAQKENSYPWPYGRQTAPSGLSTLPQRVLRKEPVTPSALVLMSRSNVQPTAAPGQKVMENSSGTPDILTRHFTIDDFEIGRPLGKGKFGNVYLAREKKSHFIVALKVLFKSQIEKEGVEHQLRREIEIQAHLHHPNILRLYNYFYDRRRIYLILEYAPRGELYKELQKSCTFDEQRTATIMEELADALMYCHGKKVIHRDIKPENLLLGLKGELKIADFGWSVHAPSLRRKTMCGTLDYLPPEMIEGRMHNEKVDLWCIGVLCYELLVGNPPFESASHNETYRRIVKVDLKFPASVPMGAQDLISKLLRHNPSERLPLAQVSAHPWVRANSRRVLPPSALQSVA
Outline: as §1

[6] = biological target: PAK5(h) (Homo sapiens, UniProt Q9P286); conditions: 100 μM peptide
PAK5(h), sequence (Q9P286 whole entry): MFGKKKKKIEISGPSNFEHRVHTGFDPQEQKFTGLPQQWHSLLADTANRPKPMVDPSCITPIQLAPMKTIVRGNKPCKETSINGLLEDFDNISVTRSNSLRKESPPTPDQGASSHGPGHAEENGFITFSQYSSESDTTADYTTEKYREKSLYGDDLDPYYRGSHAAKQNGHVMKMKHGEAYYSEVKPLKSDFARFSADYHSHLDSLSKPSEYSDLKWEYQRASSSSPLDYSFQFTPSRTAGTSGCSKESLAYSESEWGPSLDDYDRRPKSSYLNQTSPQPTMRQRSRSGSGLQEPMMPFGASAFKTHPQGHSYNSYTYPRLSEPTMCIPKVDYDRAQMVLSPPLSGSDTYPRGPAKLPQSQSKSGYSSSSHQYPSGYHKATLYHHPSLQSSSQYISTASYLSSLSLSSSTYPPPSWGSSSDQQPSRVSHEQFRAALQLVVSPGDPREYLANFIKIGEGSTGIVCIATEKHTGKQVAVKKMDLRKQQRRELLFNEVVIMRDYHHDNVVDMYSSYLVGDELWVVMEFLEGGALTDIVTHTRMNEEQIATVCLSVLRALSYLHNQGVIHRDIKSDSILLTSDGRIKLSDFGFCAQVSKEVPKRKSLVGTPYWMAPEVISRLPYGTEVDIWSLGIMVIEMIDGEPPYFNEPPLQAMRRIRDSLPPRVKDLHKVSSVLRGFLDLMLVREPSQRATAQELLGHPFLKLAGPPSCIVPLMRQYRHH
Outline: as §1

[7] = biological target: T3, PhKγ2(h) (Homo sapiens, UniProt P15735); conditions: 100 μM peptide
T3 sequence (P15735 1-406): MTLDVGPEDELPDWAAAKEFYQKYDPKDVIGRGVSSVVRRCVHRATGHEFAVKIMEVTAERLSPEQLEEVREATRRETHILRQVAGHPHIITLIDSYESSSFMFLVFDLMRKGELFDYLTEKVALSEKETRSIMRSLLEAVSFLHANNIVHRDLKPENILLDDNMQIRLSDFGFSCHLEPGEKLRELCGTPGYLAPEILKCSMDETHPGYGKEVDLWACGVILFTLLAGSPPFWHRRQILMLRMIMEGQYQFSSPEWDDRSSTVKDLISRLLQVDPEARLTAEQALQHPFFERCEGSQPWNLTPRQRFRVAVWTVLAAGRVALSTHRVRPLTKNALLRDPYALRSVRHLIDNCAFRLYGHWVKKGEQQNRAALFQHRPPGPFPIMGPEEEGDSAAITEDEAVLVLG
Outline: as §1

[8] = biological target: Met(Y1248C)(h) (Homo sapiens, UniProt P08581, Y1230C); conditions: 100 μM peptide
Outline: as §1

[9] = biological target: CaMKIIβ(h) (Homo sapiens, UniProt Q13554); conditions: 100 μM peptide
CaMKIIβ(h), sequence (Q13554 whole entry): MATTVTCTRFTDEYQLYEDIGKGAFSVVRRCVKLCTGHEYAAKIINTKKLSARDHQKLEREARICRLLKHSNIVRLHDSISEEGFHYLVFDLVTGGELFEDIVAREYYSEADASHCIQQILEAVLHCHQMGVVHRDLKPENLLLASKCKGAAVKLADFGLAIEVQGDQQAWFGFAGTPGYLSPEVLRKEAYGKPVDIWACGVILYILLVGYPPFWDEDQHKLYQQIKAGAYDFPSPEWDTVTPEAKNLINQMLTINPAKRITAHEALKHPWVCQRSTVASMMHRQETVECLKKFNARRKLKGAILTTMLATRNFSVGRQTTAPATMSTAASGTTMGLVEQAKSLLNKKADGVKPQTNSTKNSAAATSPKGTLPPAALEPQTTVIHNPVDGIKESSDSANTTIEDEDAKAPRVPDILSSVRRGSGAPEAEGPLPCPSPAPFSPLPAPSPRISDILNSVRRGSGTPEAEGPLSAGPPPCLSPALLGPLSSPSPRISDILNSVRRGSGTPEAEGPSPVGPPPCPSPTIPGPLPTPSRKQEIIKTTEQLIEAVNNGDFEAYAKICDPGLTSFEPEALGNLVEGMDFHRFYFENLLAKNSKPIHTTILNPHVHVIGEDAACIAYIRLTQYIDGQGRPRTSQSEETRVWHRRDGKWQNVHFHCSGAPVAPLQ
Outline: as §1

[10] = biological target: Met(M1268T)(h) (Homo sapiens, UniProt P08581, M1250T); conditions: 100 μM peptide
Outline: as §1

[11] = biological target: CK2(h) (Homo sapiens, UniProt P68400); conditions: 100 μM peptide
CK2(h), sequence (P68400 whole entry): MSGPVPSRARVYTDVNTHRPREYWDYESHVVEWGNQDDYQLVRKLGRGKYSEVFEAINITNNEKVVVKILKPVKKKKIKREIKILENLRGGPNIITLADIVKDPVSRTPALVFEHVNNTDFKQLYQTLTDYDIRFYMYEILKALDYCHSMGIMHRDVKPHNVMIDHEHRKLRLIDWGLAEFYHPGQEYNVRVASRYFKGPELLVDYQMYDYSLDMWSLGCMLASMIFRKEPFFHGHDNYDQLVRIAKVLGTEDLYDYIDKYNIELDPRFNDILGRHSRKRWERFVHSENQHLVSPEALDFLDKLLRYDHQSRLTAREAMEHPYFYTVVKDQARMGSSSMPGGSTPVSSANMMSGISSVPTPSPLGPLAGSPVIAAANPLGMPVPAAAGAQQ
CK2(h), sequence (P67870 whole entry partner): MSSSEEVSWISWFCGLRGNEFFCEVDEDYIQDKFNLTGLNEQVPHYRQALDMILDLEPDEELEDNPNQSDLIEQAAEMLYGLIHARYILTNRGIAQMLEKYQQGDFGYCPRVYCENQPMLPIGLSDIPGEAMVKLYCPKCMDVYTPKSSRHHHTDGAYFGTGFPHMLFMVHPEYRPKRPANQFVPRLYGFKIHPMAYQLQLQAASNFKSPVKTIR
Outline: as §1

[12] = biological target: CK1δ(h) (Homo sapiens, UniProt P48730); conditions: 100 μM peptide
CK1δ(h), sequence (P48730 whole entry): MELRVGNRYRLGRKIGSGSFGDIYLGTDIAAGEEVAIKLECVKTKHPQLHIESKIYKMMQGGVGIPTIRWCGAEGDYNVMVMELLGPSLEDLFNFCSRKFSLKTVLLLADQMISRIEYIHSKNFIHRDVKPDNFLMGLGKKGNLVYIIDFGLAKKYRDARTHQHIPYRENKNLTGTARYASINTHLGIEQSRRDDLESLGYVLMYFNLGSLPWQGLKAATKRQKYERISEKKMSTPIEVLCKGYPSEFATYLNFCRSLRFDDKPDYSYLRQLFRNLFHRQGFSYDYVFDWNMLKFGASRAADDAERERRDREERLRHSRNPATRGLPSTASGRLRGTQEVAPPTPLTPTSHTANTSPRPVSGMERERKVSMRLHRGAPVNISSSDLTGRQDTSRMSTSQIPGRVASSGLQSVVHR
Outline: as §1

[13] = biological target: Flt1(h) (Homo sapiens, UniProt P17948); conditions: 100 μM peptide
Outline: as §1

[14] = biological target: cSRC(h) (Homo sapiens, UniProt P12931); conditions: 100 μM peptide
Outline: as §1

[15] = biological target: Abl(T315I)(h) (Homo sapiens, UniProt P00519, T315I); conditions: 100 μM peptide
Outline: as §1

[16] = biological target: SAPK2a(h) (Homo sapiens, UniProt Q16539); conditions: 100 μM peptide
SAPK2a(h), sequence (Q16539 whole entry): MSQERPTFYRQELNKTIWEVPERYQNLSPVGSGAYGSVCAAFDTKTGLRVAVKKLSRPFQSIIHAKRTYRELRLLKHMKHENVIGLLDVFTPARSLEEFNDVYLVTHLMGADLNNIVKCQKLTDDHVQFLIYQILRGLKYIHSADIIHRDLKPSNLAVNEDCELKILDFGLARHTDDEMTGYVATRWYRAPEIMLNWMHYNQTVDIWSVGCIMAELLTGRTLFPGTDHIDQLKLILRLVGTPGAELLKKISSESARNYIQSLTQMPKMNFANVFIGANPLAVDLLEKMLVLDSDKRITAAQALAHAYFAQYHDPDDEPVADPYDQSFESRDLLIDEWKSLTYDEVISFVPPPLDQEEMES
Outline: as §1

[17] = biological target: MINK(h) (Homo sapiens, UniProt Q8N4C8); conditions: 100 μM peptide
MINK(h), sequence (Q8N4C8 whole entry): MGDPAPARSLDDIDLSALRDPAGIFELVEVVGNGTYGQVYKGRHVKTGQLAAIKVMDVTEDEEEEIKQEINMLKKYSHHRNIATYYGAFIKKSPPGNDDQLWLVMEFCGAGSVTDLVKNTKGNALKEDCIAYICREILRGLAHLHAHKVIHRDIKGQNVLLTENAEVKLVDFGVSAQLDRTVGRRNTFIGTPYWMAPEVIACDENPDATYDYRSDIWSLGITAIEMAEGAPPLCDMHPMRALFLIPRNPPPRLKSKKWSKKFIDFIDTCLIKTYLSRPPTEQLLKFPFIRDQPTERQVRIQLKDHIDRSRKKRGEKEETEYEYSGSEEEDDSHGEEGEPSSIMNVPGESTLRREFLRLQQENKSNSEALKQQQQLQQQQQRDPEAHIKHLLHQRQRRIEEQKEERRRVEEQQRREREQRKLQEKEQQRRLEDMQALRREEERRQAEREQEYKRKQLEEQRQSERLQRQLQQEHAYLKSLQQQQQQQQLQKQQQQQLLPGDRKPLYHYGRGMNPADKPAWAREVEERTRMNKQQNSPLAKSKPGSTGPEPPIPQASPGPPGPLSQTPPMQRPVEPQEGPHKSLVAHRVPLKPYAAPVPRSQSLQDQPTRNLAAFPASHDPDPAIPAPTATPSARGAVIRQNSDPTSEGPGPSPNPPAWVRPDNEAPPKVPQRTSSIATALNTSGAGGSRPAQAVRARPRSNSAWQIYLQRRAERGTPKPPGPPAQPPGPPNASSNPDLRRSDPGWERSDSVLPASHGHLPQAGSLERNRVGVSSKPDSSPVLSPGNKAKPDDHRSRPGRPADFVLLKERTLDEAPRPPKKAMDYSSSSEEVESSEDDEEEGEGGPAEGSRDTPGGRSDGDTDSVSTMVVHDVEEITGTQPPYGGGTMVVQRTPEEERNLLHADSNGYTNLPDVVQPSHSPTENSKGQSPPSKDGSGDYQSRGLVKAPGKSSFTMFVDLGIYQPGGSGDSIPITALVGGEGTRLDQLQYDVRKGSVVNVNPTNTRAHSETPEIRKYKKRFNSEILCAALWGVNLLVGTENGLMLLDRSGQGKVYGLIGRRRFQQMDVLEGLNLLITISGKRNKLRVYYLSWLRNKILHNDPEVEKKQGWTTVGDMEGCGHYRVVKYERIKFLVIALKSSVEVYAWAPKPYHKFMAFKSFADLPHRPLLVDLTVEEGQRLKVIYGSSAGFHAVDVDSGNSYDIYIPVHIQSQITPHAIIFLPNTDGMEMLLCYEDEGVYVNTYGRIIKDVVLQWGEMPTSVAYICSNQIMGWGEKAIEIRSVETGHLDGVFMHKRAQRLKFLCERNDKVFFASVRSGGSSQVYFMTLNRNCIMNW
Outline: as §1

[18] = biological target: Flt3(D835Y)(h) (Homo sapiens, UniProt P36888, D835Y); conditions: 100 μM peptide
Outline: as §1

[19] = biological target: CDK9/cyclin T1(h) (Homo sapiens, UniProt P50750); conditions: 100 μM peptide
Outline: as §1

[20] = biological target: MEK1(h) (Homo sapiens, UniProt Q02750); conditions: 100 μM peptide
Outline: as §1

[21] = biological target: CDK2/cyclinA(h) (Homo sapiens, UniProt P24941); conditions: 100 μM peptide
Outline: as §1

Molecule | CHK2(R145W)(h) % activity [2] [%] | GRK7(h) % activity [3] [%] | Pyk2(h) % activity [4] [%] | Aurora-B(h) % activity [5] [%] | PAK5(h) % activity [6] [%] | PhKγ2(h) % activity [7] [%] | Met(Y1248C)(h) % activity [8] [%] | CaMKIIβ(h) % activity [9] [%] | Met(M1268T)(h) % activity [10] [%] | TrkB(h) % activity [1] [%] | CK2(h) % activity [11] [%] | CK1δ(h) % activity [12] [%] | Flt1(h) % activity [13] [%] | cSRC(h) % activity [14] [%] | Abl(T315I)(h) % activity [15] [%] | SAPK2a(h) % activity [16] [%] | MINK(h) % activity [17] [%] | Flt3(D835Y)(h) % activity [18] [%] | CDK9/cyclin T1(h) % activity [19] [%] | MEK1(h) % activity [20] [%] | also measured
CC(C)C[C@H](NC(=O)[C@H](C)NC(=O)[C@H](CCCCN)NC(=O)[C@H](C)NC(=O)[C@H](CCCNC(=N)N)NC(=O)[C@H](C)NC(=O)[C@H](CCC(N)=O)NC(=O)[C@H](CCCNC(=N)N)NC(=O)[C@H](C)NC(=O)[C@H](C)NC(=O)[C@H](C)NC(=O)[C@H](CCCNC(=N)N)NC(=O)[C@H](C)NC(=O)[C@@H](N)Cc1ccc(O)cc1)C(=O)N[C@@H](C)C(=O)N[C@@H](CCCNC(=N)N)C(=O)N[C@@H](CCC(N)=O)C(=O)N[C@@H](CC(C)C)C(=O)NCC(=O)N[C@H](C(=O)N[C@@H](C)C(=O)N[C@@H](C)C(=O)O)C(C)C [MMI-0100] (H-YARAAARQARAKALARQLGVAA-OH; N-terminus and C-terminus assumed) |  |  |  |  |  |  |  |  |  |  |  |  |  |  |  |  |  |  |  |  | inhibition at 100 µM ([1]; read-out: inhibition of kinase activity of TrkB): > 65%
YARAAARQARAKALNRQLGVA (Mammalian) [MMI-0200] | 81 | 124 | 127 | 166 | 100 | 86 | 141 | 53 | 143 | 7 | 83 | 92 | 96 | 32 | 108 |  |  |  |  |  | 
HRRIKAWLKKIKALARQLGVAA (Mammalian) [MMI-0500] | 3 | 93 | 46 | 5 | 125 | 16 | 73 | 3 | 239 | 12 | 93 | 78 | 27 | 30 | 16 | 52 | 5 | 65 | 6 | 21 | CDK2/cyclinA(h) % activity [21]: 87%
KAFAKLAARLYRKALARQLGVAA [MMI-0400] | 31 | 100 | 34 | 150 |  | 38 | 36 | 11 | 265 | 8 | 101 | 93 | 48 | 14 |  | 85 | 52 | 71 | 235 | 77 | CDK2/cyclinA(h) % activity [21]: 92%
FAKLAARLYRKALARQLGVAA [MMI-0300] | 33 | 122 | 47 | 128 | 110 | 46 | 84 | 2 | 255 | 5 | 90 | 92 | 69 | 26 | 97 | 90 | 48 | 80 | 91 | 77 | CDK2/cyclinA(h) % activity [21]: 86%
